# Molecular target: T1, human CD4 on human PBMCs (human, UniProt P01730 26-458)
# T1 construct: whole, on cells; also called hCD4
# Experiment: FACS, clonal hybridoma supernatant on PBMCs
% CD4 Stain,gMFI of CD4+,Binder
33.8%,104000 gMFI,"75110_07N04A (antibody, V domains shown) VH: QVQLQESGPGLVKPSETLSLTCSVSGVSSTSFYWSWIRQPAGKGLDWIGRIYTSGSTNYNPSLKSRVTMSVDTSKNQFSLKLSSVTAADTAVYYCARDPGYSDAFAIWGQGTMVTVSS VL: not shown"
28.8%,28400 gMFI,"75110_07J24A (antibody, V domains shown) VH: QAQLQESGPGLVKPSETLSLTCTVSGGSISSYYYNWIRQPAGKGLEWIGRIYTSGRTDYNPSLKSRVTMSADTSKNQFSLKLSSVTAADTAVYYCARDEGPTDAFDIWGQGTMVTVSS VL: DIVMTQTPLSLPVTPGEPASISCRSSQSLLDSDDGNTYLDWYLQKPGQSPHLLIYTLSYRASGVPDRFSGSGSGSDFTLKISRVEAEDVGVYYCMQRIEFPFTFGPGTKVDIK"
30.3%,140000 gMFI,"75110_08A13A (antibody, V domains shown) VH: EVQLVESGGGLVQPGGSLRLSCAASGFIFSSYWMSWVRQAPGKGLEWVANIKQDGSEKYYMDSVKGRFTISRDNAKNSLYLQMNSLRAEDTAVYYCARDNSYYYYGMDVWGQGTTVTVSS VL: AIQMTQSPSSLSASVGDRVTITCRASQGIRDDLGWYQQKPGKAPKLLIFAASSLQSGVPSSFSGSGSGTDFTLTISSLQPEDFATYYCLHHYNYPYTFGQGTKLEIK"
29%,119000 gMFI,"75110_10K21A (antibody, V domains shown) VH: EVQLVESGGGLVQPGGSLRLSCAASGFTFSSYWMTWVRQAPGKGLEWVANIKQDGSEKYYVDSVKGRFTISRDNAKNSLYLQMNSLRAEDTAVYYCVRDRYDALDIWGQGTMVTVSS VL: AIQMTQSPSSLSASVGDRVTITCRASQGIRNDLNWYQQKPGKAPKLLIYAASSLQSGVPSRFSGSGSGTDFTLTISSLQAEDFATYYCLKDYNYPYTFGQGTKLEIK"
33.2%,307000 gMFI,"75110_08F20A (antibody, V domains shown) VH: QVQLQESGPGLVKPSETLSLTCSVSGGSISTYYWSWIRQPAGKGLEWIGRICTTENTNYNPSLKSRVTMSIDSSKNQFSLKLSSVTAADTAVYYCARDLERLNYYGMDVWGQGATVTVSS VL: DIQMTQSPSSLSASVGDRVTITCQASQDISKYLNWYQQKPGIAPKLLIYDASNLETGVPSRFSGSGSGTDFTFTISSLQPEDFATYYCQQYDSLPITFGQGTRLEIK"
32.2%,324000 gMFI,"75110_08G08A (antibody, V domains shown) VH: QVQLQESGPGLVKPSETLSLTCSVSGGSISTYYWSWIRQPAGKGLEWIGRICTTENTNYNPSLKSRVTMSIDSSKNQFSLKLSSVTAADTAVYYCARDLERLNYYGMDVWGQGATVTVSS VL: DIQMTQSPSSLSASVGDRVTITCQASQDISNYLNWYQQKPGIAPKLLIYDASNLETGVPSRFSGSGSGTDFTFTISSLQPEDIATYYCQQYDSLPITFGQGTRLEIK"

# Molecular target: T2, human CD4 (human, UniProt P01730 26-458)
# T2 construct: whole, on cells; also called hCD4
# Experiment: FACS, clonal hybridoma supernatant on human PBMCs
% CD4 Stain,gMFI of CD4+,Binder
35.4%,115000 gMFI,"75110_02E08A (antibody, V domains shown, Tested as clonal hybridoma supernatant (AlivaMab Mouse Kappa; anti-mouse Fc detection)) VH: QVQLQESGPGLVKPSETLSLTCTVSGGSISTYYWTWIRQPAGKGLEWIGRVYTSGDTNYNPSLKSRVAMSLDTSKNQFSLKLSSVTAADTAVYYCARDSGALYSWNYGDAFDIWGQGTMVTVSS VL: DIQMTQSPSAMSASVGDRVTITCRASQDISNYLAWFQQKPGKVPKRLIYAASSLQSGVPSRFSGSGSGTEFTLTISSLQPEDFATYYCLQHNSYPRTFGQGTKVEIK"
35.3%,208000 gMFI,"75110_01L08A (antibody, V domains shown, Tested as clonal hybridoma supernatant (AlivaMab Mouse Kappa; anti-mouse Fc detection)) VH: QVQLQESGPGLVKPSETLSLTCTVSGGSISHYYWSWIRQPPGKGLEWIGYIHYSGTTNYNPSLKSRVTISVDTSKNQLSLKLRSVTAADTAVYYCARDQGFSSGGMDVWGQGTTVTVSS VL: not shown"
33.7%,115000 gMFI,"75110_01A06A (antibody, V domains shown, Tested as clonal hybridoma supernatant of an AlivaMab Mouse Kappa hybridoma (detected with anti-mouse Fc); Kappa light chain; also called Sib2.1) VH: EVQLVESGGGLVQPGGSLRLSCAASGFTFSSYWMSWVRQAPGKGLEWVANINEDGNEKYYVDSVKGRLTISRDNAKNSLYLQMNSLRAEDTAVYFCAREGGQWLSLDYWGQGALVTVSS VL: DIQMTQSPSSVSASVGDRVSITCRASQGISSWLAWYQQKPGKAPKILIYGASSLQSGVPSRFSGSGSGTDFTLTISSLQPEDFATYYCQQANSFPWTFGQGTKVEIK"
34.8%,143000 gMFI,"75110_01J09A (antibody, V domains shown, Tested as clonal hybridoma supernatant (AlivaMab Mouse Kappa; anti-mouse Fc detection); also called Sib2.2) VH: EVQLVESGGGLVQPGGSLRLSCVASGFTFSSYWMSWVRQAPGKGLEWVANTKEDGSDKYYVDSVKGRFTICRDNAKNSLYLQMNSLRAEDTAVYYCAREGGQWLALDYWGQGTLVTVSS VL: DIQMTQSPSSVSASVGDRVTINCRASQGISSWLAWYQQKPGKAPNLLIFGASSLQSGVPSRFSGSGFGTDFSLTITTLQPEDFATYHCQQANSFPWTFGQGTKVEIK"
34.1%,205000 gMFI,"75110_01C18A (antibody, V domains shown, Tested as clonal hybridoma supernatant (AlivaMab Mouse Kappa; anti-mouse Fc detection)) VH: EVQLVESGGGLIQPGGSLRLSCAASGFTVSSNYMNWVRQAPGKGLEWVSVIYAGDNTYSADSVKGRFTISRDNSNNTLCLQMNSLRAEDTAVYYCAREGGTTGAFDIWGQGTMVTVSS VL: DIQMTQSPSSVSASVGDRVTITCRASQGINSWLAWYQQKPGKAPKLLIYAASSLQSGVPSRFSGSGSGTDFTLTISSLQPEDFATYYCQQGNSFPYTFGQGTKLEIK"
48.8%,101000 gMFI,"75110_01H18A (antibody, V domains shown, Tested as clonal hybridoma supernatant (AlivaMab Mouse Kappa; anti-mouse Fc detection); also called Sib6.1) VH: QVQLQQWGAGLLKPSETLSLTCAVYGGSFSGYYWSWIRQSPGKGLEWIGEINQSGSTNYNPSLKSRVTISVDTSKNQFSLKLSSVTAADTAVYYCARVINWFDSWGQGTLVTVSS VL: DIQMTQSPSSVSASVGDRVTITCRASQGISSWLAWYQQKPGKAPKLLIYAASSFQSGVPSRFSGSGSGTDFTLTISSLQTEDFATYYCQQANSFPYTFGQGTRLEIK"
39%,253000 gMFI,"75110_02N15A (antibody, V domains shown, Tested as clonal hybridoma supernatant (AlivaMab Mouse Kappa; anti-mouse Fc detection); also called Sib2.3) VH: EVQLVESGGGLVQPGGSLRLSCAASGFTFSSYWMSWVRQAPGKGLEWVANINEDGNEKYYVDSVKGRFTISRDNAKNSLFLQMNSLRAEDTAVYFCAREGGQWLALDHWGQGALVTVSS VL: DIQMTQSPSSVSASVGDRVTITCRASQGISSWLAWYQQKPGKAPKFLISGASSLQSGVPSRFSGSGSGTDFTLTISSLQPEDFATYYCQQANSFPWTFGQGTKVEFK"
36.1%,169000 gMFI,"75110_03C01A (antibody, V domains shown, Tested as clonal hybridoma supernatant (AlivaMab Mouse Kappa; anti-mouse Fc detection); also called Sib6.2) VH: QVQLQQWGAGLLKPSETLSLTCAVYGGSFSGYYWSWIRQSPGKGLEWIGEINQSGSTNYNPSLKSRVTISVDTSKDQFSLKLSSVTAADTAVYYCARVINWFDSWGQGSLVTVSS VL: DIQMTQSPSSVSASVGDRVTITCRASQGISSWLAWYQQKPGNAPKLLIYDASSFQSGVPSRFSGSGSGTDFTLTISSLQTEDFATYYCQQANSFPYTFGQGTKLEIK"
35.6%,207000 gMFI,"75110_03D16A (antibody, V domains shown, Tested as clonal hybridoma supernatant (AlivaMab Mouse Kappa; anti-mouse Fc detection); also called Sib2.5) VH: EVQLVESGGGLVQPGGSLRLSCAASGFTFSSYWMSWVRQAPGKGLEWVANINQDGGEKYYVDSVKGRFTISRDNAKNSLYLQMNSLRAEDTAVYYCVREGGQWLALDYWGQGTLVTVSS VL: DIQMTQSPSSVSASVGDRVTITCRASQGISSWLTWYQQKPGKAPKFLIYAASSLQSGVPSRFSGSGFGTDFTLTISSLQPEDFATYYCQQANSFPWTFGQGTKVEIK"
37.2%,205000 gMFI,"75110_01N04A (antibody, V domains shown, Tested as clonal hybridoma supernatant (AlivaMab Mouse Kappa; anti-mouse Fc detection); also called Sib1.13) VH: EVQLVESGGGLVQPGGSLRLSCAASGFTFSNYDMHWVRQATGKGLEWVSTIGTAGDTYYPGSVKGRFTISRENAKNSLYLQMNSLRAGDTAVYYCARGGDFYYGLDVWGQGTTVTVSS VL: not shown"
35.2%,167000 gMFI,"75110_01J17A (antibody, V domains shown, Tested as clonal hybridoma supernatant (AlivaMab Mouse Kappa; anti-mouse Fc detection); also called Sib1.12) VH: EVQLVESGGGLVQPGGSLRLSCAASGFTFSSYDMHWVRQGTGKGLEWVSTIGTADDTYYPGSVKGRFTISRENAENSLYLQMNSLRAGDTAVYYCARGGDYYYGMDVWGQGTTVTVSS VL: EIVLAQSPGTLSLSPGERATLSCRASQSVYISYLAWYQQKPGQAPRLLIYGASSRATGIPDRFSGSGSGTDFTLTITRLEPEDFAVYYCQQFGSSPFTFGPGTKVDFK"
39%,164000 gMFI,"75110_01G11A (antibody, V domains shown, Tested as clonal hybridoma supernatant (AlivaMab Mouse Kappa; anti-mouse Fc detection); also called Sib1.6) VH: EVQLVESGGGLVQPGGSLRLSCAASGFTFSSYDMHWVRQATGKGLEWVSTIGTAGDTYYPGSVKGRFTISRENARNSLFLQMNSLRAGDTAVYYCARGGDYYYGMDVWGQGTTVTVSS VL: EIVLTQSPGTLSLFPGERATLSCRASQNTYSSYLAWYQQKPGQAPRLLIYGASNRATGIPDRFSGSGSGTDFTLTISRLEPEDFAVYYCQQHGTSPFTFGPGTKVDIK"
36.5%,113000 gMFI,"75110_01E08A (antibody, V domains shown, Tested as clonal hybridoma supernatant (AlivaMab Mouse Kappa; anti-mouse Fc detection); also called Sib1.11) VH: EVQLVESGGGLVQPGGSLRLSCAASGFTFNNYDMHWVRQATGKGLEWVSTIGTAGDTYYPASVKGRFTIYRENAKNSLYLQMNSLRAGDTAVYYCARGGDYYYGMDVWGQGTTVTVSS VL: not shown"
40.5%,162000 gMFI,"75110_02I18A (antibody, V domains shown, Tested as clonal hybridoma supernatant (AlivaMab Mouse Kappa; anti-mouse Fc detection); also called 75110_02118A; Sib1.14) VH: EVQVVESGGGLVQPGGSLRLSCAASGFTFSSYDMHWVRQATGKGLEWVSTIGTAGDTYYPGSVKGRFTISRENAKNSLYLQMNSLRAGDTAVYYCARGGYYYYGMDVWGQGTTVTVSS VL: EIVLTQSPGTLSLSPGERATLSCRASQSVSSSYLAWYQQKPGQSPRLLIHGASSRATGIPDRVSGSGSGTDFTLTISRLEPEDFAVYYCQQYGSSPFTFGPGTKVDIK"
38%,191000 gMFI,"75110_01K10A (antibody, V domains shown, Tested as clonal hybridoma supernatant (AlivaMab Mouse Kappa; anti-mouse Fc detection); also called Sib1.3) VH: EVQLVESGGALVQPGGSLRLSCAASGFTFRNYDMHWVRQATGKGLEWVSTIGTAGDTYYPGSVKGRFTISRENAKNSLYLQMNSLRAGDTAVYYCARGGDYYYGMDVWGQGTTVTVSS VL: EIVLTQSPDTLSLSPGERATLSCRASQSLSSVYLAWYQQKPGQAPRLLIYGASSRATGIPDRFSGTGSGTDFTLTISRLEPEDFAVYYCQQYGSSPFTFGPGTKVDIK"
32.9%,134000 gMFI,"75110_01D24A (antibody, V domains shown, Tested as clonal hybridoma supernatant (AlivaMab Mouse Kappa; anti-mouse Fc detection)) VH: QVQLQQWGAGLLKPSETLSLTCAVYGGSFSGYYWSWIRQPPGKGLEWIGEINHSGSTNYNPSLKSRVTISVDTSENQFSLKLNSVTAADTAVYYCARLVNWFDPWGQGTLVTVSS VL: EIQMTQSPSSVSASVGDRVTITCRASQDISNWLAWYQQKPGKAPNLLIFAASSLQTGVPSRFSGSGSGTDFTLTISSLQPDDFATYYCQQANSFPYSFGQGTNLGIK"

# From patent publication US20220112288A1 (published 2022)
